Measured values taken from the supplement of paper PMC7125110.
± gives the standard error. Variants at the floor of the assay were thinned out.

B1: glmS ribozyme (parent)
chain: AUAAAAGCGCCAGAACUACAGAAAUGUAGUUGACGAGGAGGAGGUUUAUCGAAUUUUCGGCGGAUGCCUCCAAA

Legend:
Settings in all cases: with glucosamine-6-phosphate
glucosamine-6-phosphate [1] = variants of: B1; test: self-cleavage kobs at 160 uM GlcN6P; higher = faster cleavage; RNA array
How it was run: (§1)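 Tiles bearing barcoded ribozyme variants, transcribed in situ by E. coli RNA polymerase on sequenced MiSeq chips, were imaged over ~14 h at 37 °C using a hybridised Cy3 probe. Glucosamine-6-phosphate was supplied at 40 μM to 10 mM in HEPES/KCl/Mg(OAc)2 buffer. kobs came from one- or two-exponential decay fits to normalised per-tile medians, and weighted Michaelis–Menten fits then provided kcat and KM.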

glucosamine-6-phosphate [2] = variants of: B1; test: self-cleavage kobs at 2500 uM GlcN6P; higher = faster cleavage; RNA array
How it was run: as §1

glucosamine-6-phosphate [3] = variants of: B1; test: self-cleavage kobs at 640 uM GlcN6P; higher = faster cleavage; RNA array
How it was run: as §1

glucosamine-6-phosphate [4] = variants of: B1; test: self-cleavage kobs at 10000 uM GlcN6P; higher = faster cleavage; RNA array
How it was run: as §1

Variant | self-cleavage kobs at 160 uM GlcN6P (glucosamine-6-phosphate [1]) [s⁻¹] | self-cleavage kobs at 2500 uM GlcN6P (glucosamine-6-phosphate [2]) [s⁻¹] | self-cleavage kobs at 640 uM GlcN6P (glucosamine-6-phosphate [3]) [s⁻¹] | self-cleavage kobs at 10000 uM GlcN6P (glucosamine-6-phosphate [4]) [s⁻¹]
C16U G41C G43C A48U U57C | < 1e-05 | < 1e-05 |  | 
G29A G40C U55A U56G C67U | < 1e-05 | < 1e-05 | < 1e-05 | 
A28G C70A | 0.000126 ± 3.7e-05 | 0.000497 ± 0.00012 | 6.33e-05 ± 2.1e-05 | 
A14U G29A G63U | < 1e-05 | < 1e-05 |  | 
C34U G37U | < 1e-05 | < 1e-05 | < 1e-05 | < 1e-05
C16U U47A A53G U54A | 0.00109 ± 0.00027 | 0.00464 ± 0.00094 | 0.00231 ± 0.00054 | 
A15G U47G C68G | 0.000236 ± 8.5e-05 | 3e-05 ± 1.3e-05 |  | 
A15C A53C C68U | < 1e-05 |  |  | 
U30A A39G A48G C61U | < 1e-05 | < 1e-05 |  | 
U30G G37U | < 1e-05 |  | < 1e-05 | < 1e-05
U31G A39C U45A | 0.000229 ± 6.4e-05 | 0.00161 ± 0.00025 | 0.000642 ± 0.0001 | 
C34U A36G | < 1e-05 | < 1e-05 | < 1e-05 | 
G35C A36G U49A | < 1e-05 | < 1e-05 | < 1e-05 | 
A33U A64G | < 1e-05 |  |  | 6.18e-05 ± 1.1e-05
A15G C58G G63C C68G | 0.000162 ± 4.4e-05 |  |  | 
A33G A48C A52G | < 1e-05 |  | < 1e-05 | 
A15C U31C A39U A42C | < 1e-05 |  |  | 
C34A U49C | < 1e-05 | < 1e-05 | < 1e-05 | < 1e-05
G35C G63C | < 1e-05 | < 1e-05 | < 1e-05 | 
G32A G44C G66A C68A | < 1e-05 | < 1e-05 | < 1e-05 | 
U31C C34U C71U | < 1e-05 | < 1e-05 | < 1e-05 | 
C16G A33C C58G G66A | < 1e-05 | < 1e-05 |  | 
U31G U45C C67G | 0.000177 ± 7.3e-05 | 0.00223 ± 0.0006 |  | 
A33C C70A | < 1e-05 |  | < 1e-05 | < 1e-05
G32U G38U G43U A53U | < 1e-05 |  | < 1e-05 | 
A15C U57C G62C | < 1e-05 |  | < 1e-05 | 

Variant | self-cleavage kobs at 160 uM GlcN6P (glucosamine-6-phosphate [1]) [s⁻¹] | self-cleavage kobs at 2500 uM GlcN6P (glucosamine-6-phosphate [2]) [s⁻¹] | self-cleavage kobs at 640 uM GlcN6P (glucosamine-6-phosphate [3]) [s⁻¹] | self-cleavage kobs at 10000 uM GlcN6P (glucosamine-6-phosphate [4]) [s⁻¹]
C34U U47A A48G U69G | < 1e-05 |  |  | 
A33G U45G U69A | < 1e-05 |  | < 1e-05 | 
G35A C50G G59C U65G | 4.37e-05 ± 1.9e-05 |  | < 1e-05 | 
A14U U30C G43C G66C | < 1e-05 |  |  | 
C16U U55G U69G | 9.72e-05 ± 2.1e-05 | 5.05e-05 ± 1.1e-05 | 8.62e-05 ± 2.4e-05 | 4.21e-05 ± 1.4e-05
G35A U55C | < 1e-05 | < 1e-05 | < 1e-05 | < 1e-05
U31G G32A | 2.88e-05 ± 1.4e-05 | 0.000689 ± 0.00016 | 0.000366 ± 7.2e-05 | 0.00185 ± 0.00031
G35U G37C U45C | < 1e-05 | < 1e-05 |  | 
A33U C61G C70U | < 1e-05 |  |  | 
U30C G43U | < 1e-05 | < 1e-05 |  | < 1e-05
A15U A33G U47G U54G C67U C71A | 0.000235 ± 8.9e-05 |  | 0.000303 ± 8.2e-05 | 
C34U G37A C50A A52G C70G | 0.000507 ± 0.00015 | 0.000268 ± 9.2e-05 | 0.000453 ± 0.00013 | 
U31C G63A | < 1e-05 |  |  | < 1e-05
G32U C34G G43A | < 1e-05 | < 1e-05 | < 1e-05 | 
A33U G51U C58U | < 1e-05 |  |  | 
C34A C50G | 5.9e-05 ± 1.6e-05 |  | 0.000448 ± 0.00021 | 
U30C G40U U65G | < 1e-05 |  |  | 
U30C U56C A64U | < 1e-05 |  | < 1e-05 | 
A15C U65A | 3.48e-05 ± 1.4e-05 | 0.000234 ± 5.7e-05 | 0.000177 ± 2.9e-05 | 0.000807 ± 0.00016
C34U U47A | < 1e-05 | < 1e-05 |  | 
A33C C50A C71G | < 1e-05 |  |  | 
G32C G38A C50G | 0.000156 ± 5.3e-05 | 8.89e-05 ± 2.7e-05 | 0.000119 ± 3e-05 | 
A14U G43U U46A | < 1e-05 | < 1e-05 | < 1e-05 | 
G29C A36U G43C | < 1e-05 |  | < 1e-05 | 
A15U G32U A36G G43U U65A C67U | < 1e-05 |  | < 1e-05 | 
G29A G32A G62U | < 1e-05 |  |  | 

Variant | self-cleavage kobs at 160 uM GlcN6P (glucosamine-6-phosphate [1]) [s⁻¹] | self-cleavage kobs at 2500 uM GlcN6P (glucosamine-6-phosphate [2]) [s⁻¹] | self-cleavage kobs at 640 uM GlcN6P (glucosamine-6-phosphate [3]) [s⁻¹] | self-cleavage kobs at 10000 uM GlcN6P (glucosamine-6-phosphate [4]) [s⁻¹]
G32U A42U | < 1e-05 |  | < 1e-05 | 
U30A G38U U65G C68G | 0.000204 ± 4.9e-05 | 0.000149 ± 4.5e-05 | 0.000139 ± 4.3e-05 | 7.88e-05 ± 1.5e-05
A36C A52C | < 1e-05 |  |  | < 1e-05
A15C G35U C70U | < 1e-05 |  |  | 
A14U G43U G51C | < 1e-05 |  |  | 
G35C U54C G63A | < 1e-05 | < 1e-05 |  | 
C16A G29C C58U | < 1e-05 |  |  | 
A33U C68G C71A | < 1e-05 |  | < 1e-05 | 
U31G G51C U57C | < 1e-05 | < 1e-05 | < 1e-05 | 
A15U A52U C58A C70U | < 1e-05 |  |  | 
G29A A39U G40A | 7.25e-05 ± 2.4e-05 | 0.000397 ± 0.0001 | 0.000163 ± 5.7e-05 | 
A15G U45A U56G A64C C70A | < 1e-05 | < 1e-05 | < 1e-05 | 
G32U G51U A53U G66U C71U | < 1e-05 | < 1e-05 | < 1e-05 | 
G35C U47G U55G | < 1e-05 |  |  | < 1e-05
G29U C34U U46G U47G G63A | < 1e-05 | < 1e-05 | < 1e-05 | 
G32U A48U G60A | < 1e-05 |  |  | 
A15U A39C C58A C70G | < 1e-05 |  |  | 
U30A G35C | < 1e-05 | < 1e-05 | < 1e-05 | < 1e-05
G26U G29A U54A C70U C71U | 0.000121 ± 3.5e-05 | 5.37e-05 ± 2.3e-05 |  | 
C34U C61G | < 1e-05 |  | < 1e-05 | < 1e-05
G32A U49C C61A | < 1e-05 |  |  | 
C16A G59A C70G | 9.32e-05 ± 3.1e-05 |  |  | 
A14U A36C A64U | < 1e-05 |  | < 1e-05 | < 1e-05
G29A C50A A53C | < 1e-05 |  |  | 
A15C A33U A36C A48C | < 1e-05 | < 1e-05 | < 1e-05 | 
A15G G41U G62U | < 1e-05 | < 1e-05 | < 1e-05 | 

Variant | self-cleavage kobs at 160 uM GlcN6P (glucosamine-6-phosphate [1]) [s⁻¹] | self-cleavage kobs at 2500 uM GlcN6P (glucosamine-6-phosphate [2]) [s⁻¹] | self-cleavage kobs at 640 uM GlcN6P (glucosamine-6-phosphate [3]) [s⁻¹] | self-cleavage kobs at 10000 uM GlcN6P (glucosamine-6-phosphate [4]) [s⁻¹]
U31A G38A A42C | < 1e-05 |  | < 1e-05 | 
U31A C34A U55A C67G | < 1e-05 | < 1e-05 | < 1e-05 | 
C16A A52G G63U G66U | < 1e-05 |  | < 1e-05 | 
A33U A36U | < 1e-05 | < 1e-05 | < 1e-05 | < 1e-05
G35C A53G | < 1e-05 | < 1e-05 | < 1e-05 | < 1e-05
G32U G38U U54G | < 1e-05 |  |  | 
C16G G38A | < 1e-05 |  | < 1e-05 | < 1e-05
U30C A36G C67A | < 1e-05 | < 1e-05 |  | 
U30G G38C | < 1e-05 | < 1e-05 | < 1e-05 | 
C34A G38U A53C | < 1e-05 | < 1e-05 | < 1e-05 | 
A33U A36C G43A C70G | < 1e-05 | < 1e-05 | < 1e-05 | 
A15C C61U A64U | < 1e-05 |  |  | 
G29U G32C A36G | < 1e-05 |  | < 1e-05 | 
G35C C50U A53C | < 1e-05 | < 1e-05 | < 1e-05 | 
G32C U47A G62C A64G | < 1e-05 | < 1e-05 | < 1e-05 | 
U31C U54A C67G | 3.53e-05 ± 9.2e-06 | 7.96e-05 ± 1.7e-05 | 8.75e-05 ± 2.2e-05 | 
A33G G41A C70A | < 1e-05 |  | < 1e-05 | < 1e-05
G32A U56G | 9.78e-05 ± 3.6e-05 | 0.000254 ± 3.2e-05 | 0.000151 ± 2e-05 | 0.000906 ± 8.9e-05
G29U G43A C70A | < 1e-05 |  |  | 
A15C C50G G66U | 5.42e-05 ± 1.8e-05 |  |  | 
G29C A36G G41U | < 1e-05 | < 1e-05 | < 1e-05 | 
C16U C58U | < 1e-05 | 2.45e-05 ± 6.4e-06 |  | 9.48e-05 ± 8.5e-06
A15C A39U U47A U54G | 4.07e-05 ± 1.7e-05 | 0.000635 ± 8.5e-05 | 0.000184 ± 4.1e-05 | 
C16G G51U G60C | < 1e-05 | < 1e-05 | < 1e-05 | 
G29C U30C G37C C70G | 9.14e-05 ± 2.9e-05 | 0.000111 ± 3.5e-05 | 0.000358 ± 0.00011 | 
